# Results as given in article PMC4837482, “The complex binding mode of the peptide hormone H2 relaxin to its receptor RXFP1” (Nature Communications, 2016).
# Where no end group is shown, it is not given here. The star is where a group is joined. DTPA = O=C(O)CN(CCN(CC(=O)O)CC(=O)O)CCN(CC(=O)O)CC(=O)*
# T1: RXFP1 F54A/Y58A (Homo sapiens, UniProt Q9HBX9, F76A/Y80A)
# T1 construct: cells expressing full-length RXFP1 and mutants; expressed in transfected cells; host or cells: HEK293T
# T1 sequence (Q9HBX9 23-757 F76A/Y80A limits assumed): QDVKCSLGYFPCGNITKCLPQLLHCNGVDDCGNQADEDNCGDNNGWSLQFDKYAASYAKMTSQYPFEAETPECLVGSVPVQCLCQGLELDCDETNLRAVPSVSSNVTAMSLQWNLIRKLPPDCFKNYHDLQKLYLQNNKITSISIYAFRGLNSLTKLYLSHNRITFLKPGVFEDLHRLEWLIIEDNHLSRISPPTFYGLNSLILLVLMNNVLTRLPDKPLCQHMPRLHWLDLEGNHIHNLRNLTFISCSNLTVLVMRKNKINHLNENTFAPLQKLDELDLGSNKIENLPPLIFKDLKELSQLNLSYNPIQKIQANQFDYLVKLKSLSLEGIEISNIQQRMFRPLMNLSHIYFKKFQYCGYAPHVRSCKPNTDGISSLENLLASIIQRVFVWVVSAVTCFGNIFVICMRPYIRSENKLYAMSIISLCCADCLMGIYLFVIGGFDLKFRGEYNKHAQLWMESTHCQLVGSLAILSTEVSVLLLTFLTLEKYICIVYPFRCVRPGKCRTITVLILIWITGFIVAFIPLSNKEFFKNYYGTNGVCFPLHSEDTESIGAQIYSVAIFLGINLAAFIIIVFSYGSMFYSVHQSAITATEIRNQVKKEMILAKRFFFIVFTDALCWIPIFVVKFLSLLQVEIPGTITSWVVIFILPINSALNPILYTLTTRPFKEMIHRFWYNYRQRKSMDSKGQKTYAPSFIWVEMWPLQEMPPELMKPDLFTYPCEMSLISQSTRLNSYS
# T2: RXFP1 C40A^ins (Homo sapiens, UniProt Q9HBX9, INS62A)
# T2 construct: cells expressing full-length RXFP1 and mutants; expressed in transfected cells; host or cells: HEK293T
# T2 sequence (Q9HBX9 with tags, fused parts or gaps INS62A limits assumed): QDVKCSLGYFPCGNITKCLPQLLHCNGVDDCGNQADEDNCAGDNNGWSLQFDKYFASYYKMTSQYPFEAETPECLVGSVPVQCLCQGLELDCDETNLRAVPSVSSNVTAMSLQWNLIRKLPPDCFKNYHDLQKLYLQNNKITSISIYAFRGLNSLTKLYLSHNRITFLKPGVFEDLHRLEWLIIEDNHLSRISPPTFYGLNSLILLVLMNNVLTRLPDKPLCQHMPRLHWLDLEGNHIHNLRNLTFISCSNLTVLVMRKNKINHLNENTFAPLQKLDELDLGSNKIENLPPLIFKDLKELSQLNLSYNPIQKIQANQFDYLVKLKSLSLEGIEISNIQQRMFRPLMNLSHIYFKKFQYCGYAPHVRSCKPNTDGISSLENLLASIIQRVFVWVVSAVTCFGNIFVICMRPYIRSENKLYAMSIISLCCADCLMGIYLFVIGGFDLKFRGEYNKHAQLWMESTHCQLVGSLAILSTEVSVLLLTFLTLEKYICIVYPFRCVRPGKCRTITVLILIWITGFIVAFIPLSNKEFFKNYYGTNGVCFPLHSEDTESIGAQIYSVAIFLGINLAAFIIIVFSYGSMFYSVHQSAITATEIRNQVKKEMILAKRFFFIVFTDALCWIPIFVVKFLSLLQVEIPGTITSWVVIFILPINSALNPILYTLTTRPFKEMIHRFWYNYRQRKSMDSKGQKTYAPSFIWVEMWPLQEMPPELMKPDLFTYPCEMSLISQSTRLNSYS
# T3: relaxin family peptide receptor-1 (RXFP1), wild type, full length (human, UniProt Q9HBX9 23-757)
# T3 construct: also called wild-type RXFP1; source: HEK293T, transiently transfected, on cells; not shown: FLAG, N-terminal, kept
# T3 sequence (looked up): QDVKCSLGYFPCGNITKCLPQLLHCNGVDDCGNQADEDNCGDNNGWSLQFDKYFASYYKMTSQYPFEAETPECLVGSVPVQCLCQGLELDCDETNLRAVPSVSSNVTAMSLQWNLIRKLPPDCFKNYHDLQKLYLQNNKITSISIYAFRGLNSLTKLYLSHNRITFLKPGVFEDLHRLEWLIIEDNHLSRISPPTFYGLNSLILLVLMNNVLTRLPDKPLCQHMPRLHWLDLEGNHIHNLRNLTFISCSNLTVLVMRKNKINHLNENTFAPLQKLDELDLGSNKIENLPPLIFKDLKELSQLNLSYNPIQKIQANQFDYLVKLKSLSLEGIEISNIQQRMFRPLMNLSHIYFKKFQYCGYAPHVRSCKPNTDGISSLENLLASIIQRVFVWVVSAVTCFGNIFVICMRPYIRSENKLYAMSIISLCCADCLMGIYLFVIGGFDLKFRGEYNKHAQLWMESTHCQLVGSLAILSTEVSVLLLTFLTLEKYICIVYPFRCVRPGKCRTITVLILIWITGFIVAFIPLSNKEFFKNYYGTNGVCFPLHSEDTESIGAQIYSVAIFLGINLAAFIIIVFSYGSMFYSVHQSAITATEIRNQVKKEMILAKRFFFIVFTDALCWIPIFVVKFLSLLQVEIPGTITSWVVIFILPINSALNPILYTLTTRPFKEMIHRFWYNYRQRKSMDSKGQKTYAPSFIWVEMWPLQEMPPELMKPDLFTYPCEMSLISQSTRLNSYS
# B1: Europium-labelled H2 relaxin (ligand, human)
# chain 1: {DTPA}-QLYSALANKCCHVGCTKRSLARFC
# chain 2: DSWMEEVIKLCGRELVRAQIAICGMSTWS
# modifications: not fully specified; ends and bridges not checked; also: DTPA cage loaded with Eu^3+
# notes: A chain of human gene-2 (H2) relaxin; numbers count on: the A chain; B chain of human gene-2 (H2) relaxin; numbers count on: the B chain; also called Eu-H2 relaxin; Eu-H2
# Tests used:
# RXFP1 F54A/Y58A = target: T1, RXFP1 F54A/Y58A; assay: Eu-H2 relaxin saturation binding assay, transfected HEK293T cells; conditions: F54A/Y58A RXFP1 versus wild-type RXFP1
# RXFP1 C40A^ins = target: T2, RXFP1 C40A^ins; assay: as above; conditions: C40A^ins full-length RXFP1 versus wild-type RXFP1
# [1] = target: T3, relaxin family peptide receptor-1 …; assay: europium-labelled ligand saturation binding on cells (time-resolved fluorescence); HEK293T cells transiently transfected with receptor, 96-well plates; increasing Eu-H2 relaxin (maximum 15 nM) with or without 1 μM unlabelled H2 relaxin, 1 h, room temperature; 20 mM HEPES pH 7.5, 1.5 mM CaCl2, 50 mM NaCl, 0.01% NaN3, 1% BSA; one-site fit; conditions: one partner purified
Molecule,loss in H2 relaxin binding (RXFP1 F54A/Y58A),decrease in H2 relaxin affinity (RXFP1 C40A^ins),Kd [1]
H2 relaxin: two-chain 6-kDa peptide hormone structurally related to insulin; recombinant human gene-2 H2 relaxin provided by Corthera,tenfold,sixfold,
B1,,,0.57 nM
